B1: C8orf76 (parent)
chain: LYLQLAICSSLQNLEKTIFCLQKL
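Also: lentivirally expressed fusions sorted by FACS into six bins by GFP to DsRed ratio, PSI derived from sequencing read proportions per bin multiplied by bin number.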

Variants of: B1
Test: protein stability index of a GFP-peptide fusion (GPS, HEK-293T) (PSI 1-6); higher = more stable
Settings: c terminus: a fixed tail appended
For LYLQLAICSSLQNLEKTIFWLQKL, the protein stability index was 2.66.
Variant LYLQLAICSSLQNLEKTIFHLQKL has a protein stability index of 3.83.
With LYLQLAICSSLQNLEKTIFTLQKL the protein stability index was 2.13.
With LYLQLAICSSLQNLEKTIFVLQKL the protein stability index was 3.44.
With LYLQLAICSSLQNLEKTIFGLQKL the protein stability index was 3.1.
LYLQLAICSSLQNLEKTIFRLQKL gave a protein stability index of 3.09.
Variant LYLQLAICSSLQNLEKTIFYLQKL has a protein stability index of 2.18.
Variant LYLQLAICSSLQNLEKTIFELQKL has a protein stability index of 1.86.
LYLQLAICSSLQNLEKTIFALQKL showed a protein stability index of 2.85.
LYLQLAICSSLQNLEKTIFPLQKL showed a protein stability index of 1.88.
Work on LYLQLAICSSLQNLEKTIFMLQKL yielded a protein stability index of 1.94.
LYLQLAICSSLQNLEKTIFKLQKL gave a protein stability index of 2.36.
For LYLQLAICSSLQNLEKTIFILQKL, the protein stability index was 2.15.
For LYLQLAICSSLQNLEKTIFFLQKL, the protein stability index was 2.83.
With LYLQLAICSSLQNLEKTIFDLQKL the protein stability index was 2.93.
With LYLQLAICSSLQNLEKTIFCLQDL the protein stability index was 2.02.
For LYLQLAICSSLQNLEKTIFCLQFL, the protein stability index was 2.92.
Work on LYLQLAICSSLQNLEKTIFCLQGL yielded a protein stability index of 3.17.
For LYLQLAICSSLQNLEKTIFCLQIL, the protein stability index was 2.72.
Work on LYLQLAICSSLQNLEKTIFCLKKL yielded a protein stability index of 3.39.
LYLQLAICSSLQNLEKTIFCLVKL showed a protein stability index of 2.58.
LYLQLAICSSLQNLEKTIFCLMKL gave a protein stability index of 3.12.
With LYLQLAICSSLQNLEKTIFCLPKL the protein stability index was 2.69.
LYLQLAICSSLQNLEKTIFCLNKL showed a protein stability index of 2.31.
In the case of LYLQLAICSSLQNLEKTIFCLDKL, the protein stability index is reported as 2.46.
With LYLQLAICSSLQNLEKTIFCLSKL the protein stability index was 1.58.
LYLQLAICSSLQNLEKTIFCLWKL gave a protein stability index of 1.93.
For LYLQLAICSSLQNLEKTIFCLTKL, the protein stability index was 3.32.
LYLQLAICSSLQNLEKTIFCLFKL gave a protein stability index of 3.5.
Work on LYLQLAICSSLQNLEKTIFCLCKL yielded a protein stability index of 2.56.
LYLQLAICSSLQNLEKTIFCLIKL showed a protein stability index of 1.46.
LYLQLAICSSLQNLVKTIFCLQKL gave a protein stability index of 3.25.
In the case of LYLQLAICSSLQNLTKTIFCLQKL, the protein stability index is reported as 1.99.
With LYLQLAICSSLQNLWKTIFCLQKL the protein stability index was 3.01.
LYLQLAICSSLQNLQKTIFCLQKL showed a protein stability index of 3.27.
With LYLQLAICSSLQNLRKTIFCLQKL the protein stability index was 2.63.
In the case of LYLQLAICSSLQNLEKTIFCNQKL, the protein stability index is reported as 2.25.
LYLQLAICSSLQNLEKTIFCAQKL showed a protein stability index of 2.77.
For LYLQLAICSSLQNLEKTIFCYQKL, the protein stability index was 3.14.
LYLQLAICSSLQNLEKTIFCEQKL showed a protein stability index of 1.42.
In the case of LYLQLAICSSLQNLEKTIFCSQKL, the protein stability index is reported as 2.59.
For LYLQLAICSSLQNLEKTIFCPQKL, the protein stability index was 3.85.
With LYLQLAICSSLQNLEKTIFCHQKL the protein stability index was 2.76.
In the case of LYLQLAICSSLQNLEKTIFCCQKL, the protein stability index is reported as 2.88.
With LYLQLAICSSLQNLEKTIFCRQKL the protein stability index was 2.08.
LYLQLAICSSLQNLEKTIFCDQKL showed a protein stability index of 2.09.
With LYLQLAICSSLQNLEKTIFCFQKL the protein stability index was 3.62.
Work on LYLQLAICSSLQNLEKTIFCGQKL yielded a protein stability index of 3.2.
Work on LYLQLAICSSLQNLEKHIFCLQKL yielded a protein stability index of 2.34.
LYLQLAICSSLQNLEKNIFCLQKL showed a protein stability index of 2.46.
Work on LYLQLAICSSLQNLEKLIFCLQKL yielded a protein stability index of 4.
In the case of LYLQLAICSSLQNLEKQIFCLQKL, the protein stability index is reported as 3.45.
Work on LYLQLAICSSLQNLEKGIFCLQKL yielded a protein stability index of 4.96.
Work on LYLQLAICSSLQNLEKMIFCLQKL yielded a protein stability index of 3.56.
In the case of LYLQLAICSSLQNLEKFIFCLQKL, the protein stability index is reported as 3.63.
In the case of LYLQLAICSSLQNLEKWIFCLQKL, the protein stability index is reported as 4.22.
LYLQLAICSSLQNLEKCIFCLQKL showed a protein stability index of 2.55.
In the case of LYLQLAICSSLQNLEKDIFCLQKL, the protein stability index is reported as 2.31.
LYLQLAICSSLQNLEKYIFCLQKL gave a protein stability index of 3.47.
With LYLQLAICSSLQNLEKPIFCLQKL the protein stability index was 1.98.
In the case of LYLQLAICSSLQNLEKVIFCLQKL, the protein stability index is reported as 2.84.
Work on LYLQLAICSSLQNLEPTIFCLQKL yielded a protein stability index of 2.32.
Variant LYLQLAICSSLQNLESTIFCLQKL has a protein stability index of 2.67.
Variant LYLQLAICSSLQNLEITIFCLQKL has a protein stability index of 2.44.
LYLQLAICSSLQNLEYTIFCLQKL gave a protein stability index of 2.26.
In the case of LYLQLAICSSLQNLEQTIFCLQKL, the protein stability index is reported as 3.17.
LYLQLAICSSLQNLENTIFCLQKL showed a protein stability index of 2.47.
LYLQLAICSSLQNLETTIFCLQKL gave a protein stability index of 4.26.
LYLQLAICSSLQNLECTIFCLQKL gave a protein stability index of 4.77.
LYLQLAICSSLQNLEKTLFCLQKL gave a protein stability index of 2.46.
Work on LYLQLAICSSLQNLEKTQFCLQKL yielded a protein stability index of 2.44.
Work on LYLQLAICSSLQNLEKTEFCLQKL yielded a protein stability index of 1.79.
For LYLQLAICSSLQNLEKTPFCLQKL, the protein stability index was 4.2.
LYLQLAICSSLQNLEKTHFCLQKL gave a protein stability index of 2.6.
For LYLQLAICSSLQNLEKTFFCLQKL, the protein stability index was 2.57.
LYLQLAICSSLQNLEKTNFCLQKL showed a protein stability index of 5.27.
With LYLQLAICSSLQNLEKTWFCLQKL the protein stability index was 3.03.
In the case of LYLQLAICSSLQNLEKTRFCLQKL, the protein stability index is reported as 2.41.
In the case of LYLQLAICSSLQNLEKTMFCLQKL, the protein stability index is reported as 1.11.
LYLQLAICSSLQNLEKTKFCLQKL showed a protein stability index of 2.22.
Variant LYLQLAICSSLQNLEKTYFCLQKL has a protein stability index of 2.94.
Variant LYLQLAICSSLQNLEKTIGCLQKL has a protein stability index of 2.83.
LYLQLAICSSLQNLEKTILCLQKL gave a protein stability index of 3.21.
Work on LYLQLAICSSLQNLEKTITCLQKL yielded a protein stability index of 1.71.
LYLQLAICSSLQNLEKTIACLQKL gave a protein stability index of 2.89.
LYLQLAICSSLQNLEKTIKCLQKL gave a protein stability index of 3.04.
With LYLQLAICSSLQNLEKTIWCLQKL the protein stability index was 2.24.
Work on LYLQLAICSSLQNLEKTIYCLQKL yielded a protein stability index of 4.28.
For LYLQLAICSSLQNLEKTIVCLQKL, the protein stability index was 2.
With LYLQLAICSSLQNLEKTIECLQKL the protein stability index was 1.81.
LYLQLAICSSLQNLEKTICCLQKL showed a protein stability index of 2.27.
LYLQLAICSSLQNLEKTINCLQKL showed a protein stability index of 3.32.
LYLQLAICSSLQNLEKTIICLQKL gave a protein stability index of 2.8.
Work on LYLQLAICSSLQNLEKTIMCLQKL yielded a protein stability index of 3.62.

Reference: the supplement of paper PMC10567573
